Key:
[1] = target: T1, BMPR-IA (BMP receptor type IA) (UniProt P36894 24-152, limits assumed); test: ELISA: peptide coated on plate, BMPR-1A added, detected with anti-receptor antibody and HRP secondary, ABTS, absorbance at 595 nm
T1 construct: Soluble receptor added to the PEP7-coated plate; also called BMPR-1A; BMP-specific receptor
Experimental: (§1) PEP7 ([…]) was added to an ELISA plate and incubated at 4° C. for 12 hours. After PEP7 was coated on the plate, BMPR-1A or BMPR-II ([…]) was added thereto and reacted at room temperature for 2 hours, to obtain a PEP7-BMP receptor complex. A primary antibody specific for a BMP receptor (0.5 mg BMPR-1A, BMPR-11) was added to the complex and reacted at room temperature for 1 hour. A secondary antibody (BMPR-1A- or BMPRII-Fc Ab-HRP) was then added to the resulting mixture and reacted at room temperature for 1 hour.

[2] = target: T2, BMPR-II (BMP receptor type II) (UniProt Q13873 27-151, limits assumed); test: ELISA: peptide coated on plate, BMPR-II added, detected with anti-receptor antibody and HRP secondary, ABTS, absorbance at 595 nm
T2 construct: Soluble receptor added to the PEP7-coated plate; also called BMPR-11; BMP-II
T2 sequence (looked up): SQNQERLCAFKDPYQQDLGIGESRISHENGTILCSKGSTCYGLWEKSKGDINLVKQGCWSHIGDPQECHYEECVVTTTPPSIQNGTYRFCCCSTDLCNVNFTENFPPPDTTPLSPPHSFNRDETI
Experimental: as §1

T1 sequence (P36894 24-152 limits assumed): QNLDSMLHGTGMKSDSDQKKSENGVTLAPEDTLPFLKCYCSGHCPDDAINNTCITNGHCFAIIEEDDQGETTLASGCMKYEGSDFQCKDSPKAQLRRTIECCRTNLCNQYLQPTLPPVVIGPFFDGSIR

B1: PEP7 oligopeptide (SEQ ID NO:1) (peptide)
peptide: KIPKPSSVPTELSAISMLYL
notes: Synthetic peptide made by the Fmoc/tBu method, coated on the ELISA plate
- binding affinity relative to PEP 111 (ELISA absorbance) [1]: ~23 % higher than PEP 111
- binding affinity relative to PEP 111 (ELISA absorbance) [2]: ~23 % higher than PEP 111
